{
  "source": "paper PMC9860306",
  "about": "(2022)",
  "binders": {"B1": {"name": "rituximab, galactosylated afucosylated (G2) glycoform (antibody)", "chain 1": "QVQLQQPGAELVKPGASVKMSCKASGYTFTSYNMHWVKQTPGRGLEWIGAIYPGNGDTSYNQKFKGKATLTADKSSSTAYMQLSSLTSEDSAVYYCARSTYYGGDWYFNVWGAGTTVTVSA", "chain 2": "QIVLSQSPAILSASPGEKVTMTCRASSSVSYIHWFQQKPGSSPKPWIYATSNLASGVPVRFSGSGSGTSYSLTISRVEAEDAATYYCQQWTSNPPTFGGGTKLEIK", "modifications": "N-linked glycan on Asn297: G2 (galactosylated, no core fucose)"}},
  "experiment_in_all_cases": "SPR",
  "key": {"E2": {"biological_target": "E2"}, "C11": {"biological_target": "C11"}, "E4": {"biological_target": "E4"}},
  "data": [
    {"binder": "B1", "values": [
      {"measurement": "Kd", "setting": "E2", "result": 4.74, "unit": "µM"},
      {"measurement": "Kd", "setting": "C11", "result": 22.8, "unit": "µM"},
      {"measurement": "Kd", "setting": "E4", "result": 2.48, "unit": "µM"}
    ]}
  ]
}
